Data reported in paper PMC10958042.

B1: ATGL (PNPLA2, patatin-like phospholipase domain-containing protein 2), human, full length / G0S2 (G0/G1 switch protein 2), human (parent)
chain 1: MFPREKTWNISFAGCGFLGVYYVGVASCLREHAPFLVANATHIYGASAGALTATALVTGVCLGEAGAKFIEVSKEARKRFLGPLHPSFNLVKIIRSFLLKVLPADSHEHASGRLGISLTRVSDGENVIISHFNSKDELIQANVCSGFIPVYCGLIPPSLQGVRYVDGGISDNLPLYELKNTITVSPFSGESDICPQDSSTNIHELRVTNTSIQFNLRNLYRLSKALFPPEPLVLREMCKQGYRDGLRFLQRNGLLNRPNPLLALPPARPHGPEDKDQAVESAQAEDYSQLPGEDHILEHLPARLNEALLEACVEPTDLLTTLSNMLPVRLATAMMVPYTLPLESALSFTIRLLEWLPDVPEDIRWMKEQTGSICQYLVMRAKRKLGRHLPSRLPEQVELRRVQSLPSVPLSCAAYREALPGWMRNNLSLGDALAKWEECQRQLLLGLFCTNVAFPPEALRMRAPADPAPAPADPASPQHQLAGPAPLLSTPAPEARPVIGALGL
chain 2: METVQELIPLAKEMMAQKRKGKMVKLYVLGSVLALFGVVLGLMETVCSPFTAARRLRDQEAAVAELQAALERQALQKQALQEKGKQQDTVLGGRALSNRQHAS
B2: ATGL (PNPLA2, patatin-like phospholipase domain-containing protein 2), human, full length / CGI-58 (ABHD5, 1-acylglycerol-3-phosphate O-acyltransferase ABHD5), human (parent)
chain 1: B1 chain 1
chain 2: MAAEEEEVDSADTGERSGWLTGWLPTWCPTSISHLKEAEEKMLKCVPCTYKKEPVRISNGNKIWTLKFSHNISNKTPLVLLHGFGGGLGLWALNFGDLCTNRPVYAFDLLGFGRSSRPRFDSDAEEVENQFVESIEEWRCALGLDKMILLGHNLGGFLAAAYSLKYPSRVNHLILVEPWGFPERPDLADQDRPIPVWIRALGAALTPFNPLAGLRIAGPFGLSLVQRLRPDFKRKYSSMFEDDTVTEYIYHCNVQTPSGETAFKNMTIPYGWAKRPMLQRIGKMHPDIPVSVIFGARSCIDGNSGTSIQSLRPHSYVKTIAILGAGHYVYADQPEEFNQKVKEICDTVD

Variants of: B1
Assay: LUMIER: Protein A-ATGL variant and firefly luciferase-partner co-expressed in HEK293T, lysates immunoprecipitated on IgG-coated plates, co-precipitated partner measured as luciferase luminescence
Settings: with G0S2 (G0/G1 switch protein 2), transient co-transfection, IgG-coated LUMITRAC plates, 2 h at 4 °C, three PBS washes, Bright-Glo luciferase reagent, triplicates per assay, two …, parent: 0.26, not graded, scale: log2 fold change of co-immunoprecipitated luminescence relative to wild-type ATGL within each experiment

Variant	screen value
chain 1 T41A	0.0368
chain 1 E368A	-0.233
chain 1 V127L	0.199
chain 1 H109E	0.353
chain 1 R95K	0.105
chain 1 A104E	-0.113
chain 1 R351L	0.121
chain 1 G59L	-2.12

Now from value to variant:

screen value	Variant
-1.03	chain 1 I70A
-2.18	chain 1 P156K
-2.73	chain 1 N39E
-0.163	chain 1 F35A

Same assay, conditions: with G0S2 (G0/G1 switch protein 2), transient co-transfection, IgG-coated LUMITRAC plates, 2 h at 4 °C, three PBS washes, Bright-Glo luciferase reagent, triplicates per assay, two …, parent: 0.56, not graded, scale: log2 fold change of co-immunoprecipitated luminescence relative to wild-type ATGL within each experiment

Variant	screen value
chain 1 T41A	0.0587
chain 1 E368A	-0.215
chain 1 V127L	0.376
chain 1 H109E	0.0835
chain 1 R95K	0.0501
chain 1 A104E	0.0584
chain 1 R351L	0.273
chain 1 G59L	-2.22

Next, values leading:

screen value	Variant
-1.14	chain 1 I70A
-2.45	chain 1 P156K
-2.67	chain 1 N39E
-0.133	chain 1 F35A

Variants of: B2
Assay: as above
Settings: with CGI-58 (ABHD5, 1-acylglycerol-3-phosphate O-acyltransferase ABHD5), transient co-transfection, IgG-coated LUMITRAC plates, 2 h at 4 °C, three PBS washes, Bright-Glo luciferase reagent, triplicates per assay, two …, parent: 0.32, not graded, scale: log2 fold change of co-immunoprecipitated luminescence relative to wild-type ATGL within each experiment

Variant	screen value
chain 1 Q140A	0.428
chain 1 Q140K	-0.444
chain 1 K275A	-0.731
chain 1 R95K	0.177
chain 1 Q396A	-0.502
chain 1 I70K	-0.355
chain 1 L62A	-0.556
chain 1 G153A	-0.595
chain 1 E368A	-0.427
chain 1 G66A	-0.000473
chain 1 G66L	0.0179
chain 1 Y415A	0.149
chain 1 S106K	-0.182
chain 1 S87E	-0.0233
chain 1 N39E	-0.3
chain 1 R113L	-0.625
chain 1 R113K	0.189
chain 1 P103K	-0.089
chain 1 S158A	0.402

Now from value to variant:

screen value	Variant
-0.83	chain 1 F348E
-0.449	chain 1 V127L
-0.794	chain 1 P156K
-0.598	chain 1 L178A
0.291	chain 1 A104E
-0.121	chain 1 R95L
-0.496	chain 1 I70A
-0.614	chain 1 L62K
0.0522	chain 1 H109E
-0.536	chain 1 G153K
-0.404	chain 1 G59L
-0.737	chain 1 L159A
-0.67	chain 1 K92L
-0.244	chain 1 S87A
-0.412	chain 1 R329E
-0.0512	chain 1 F35A
0.146	chain 1 F35E
-0.948	chain 1 R351L
-0.624	chain 1 E125L
-0.532	chain 1 L102K
0.351	chain 1 R163K
-1.2	chain 1 L261E
0.269	chain 1 T41A
-0.174	chain 1 P86K
-0.513	chain 1 V328A
-0.218	chain 1 E314A

Same assay, conditions: with CGI-58 (ABHD5, 1-acylglycerol-3-phosphate O-acyltransferase ABHD5), transient co-transfection, IgG-coated LUMITRAC plates, 2 h at 4 °C, three PBS washes, Bright-Glo luciferase reagent, triplicates per assay, two …, parent: 0.45, not graded, scale: log2 fold change of co-immunoprecipitated luminescence relative to wild-type ATGL within each experiment

Variant	screen value
chain 1 Q140A	0.0685
chain 1 Q140K	0.322
chain 1 N180L	-0.679
chain 1 K275A	-0.473
chain 1 R95K	-0.0705
chain 1 Q396A	-0.818
chain 1 I70K	-0.676
chain 1 L62A	-0.528
chain 1 G153A	-0.455
chain 1 E368A	-0.714
chain 1 G66A	0.0899
chain 1 G66L	-0.54
chain 1 Y415A	-0.124
chain 1 S106K	-0.557
chain 1 S87E	-0.304
chain 1 N39E	-0.215
chain 1 R113L	-0.259
chain 1 R113K	0.534
chain 1 P103K	0.0251
chain 1 S158A	0.00753

Results, then the variant that gave them:

screen value	Variant
-1.02	chain 1 F348E
-0.203	chain 1 V127L
-0.596	chain 1 P156K
-0.392	chain 1 L178A
0.0407	chain 1 A104E
-0.396	chain 1 R95L
-0.552	chain 1 I70A
-0.447	chain 1 L62K
-0.021	chain 1 H109E
-0.602	chain 1 G153K
-0.665	chain 1 G59L
-0.542	chain 1 L159A
-0.328	chain 1 K92L
-0.0566	chain 1 S87A
-0.601	chain 1 R329E
-0.207	chain 1 F35A
0.336	chain 1 F35E
-1.04	chain 1 R351L
-0.2	chain 1 E125L
-0.83	chain 1 L102K
0.226	chain 1 R163K
-0.989	chain 1 L261E
0.283	chain 1 T41A
-0.669	chain 1 P86K
-0.464	chain 1 V328A
-0.112	chain 1 E314A

Same assay, conditions: with CGI-58 (ABHD5, 1-acylglycerol-3-phosphate O-acyltransferase ABHD5), transient co-transfection, IgG-coated LUMITRAC plates, 2 h at 4 °C, three PBS washes, Bright-Glo luciferase reagent, triplicates per assay, two …, parent: 0.32, not graded, value at the no-binding floor (a bound), scale: log2 fold change of co-immunoprecipitated luminescence relative to wild-type ATGL within each experiment

screen value	Variant
-1.8	chain 1 N180L
